# In patent US11319368B2, “Treatment of hepatotoxicity with IL-11 antibody” (Singapore Health Services PTE LTD., priority 2019, dated 2022):
# B1: rhIL11: Recombinant human IL11 (UniProtKB:P20809, Genscript) (protein)
# chain: PGPPPGPPRVSPDPRAELDSTVLLTRSLLADTRQLAAQLRDKFPADGDHNLDSLPTLAMSAGALGALQLPGVLTRLRADLLSYLRHVQWLRRAGGSSLKTLEPELGTLQARLDRLLRRLQLLMSRLALPQPPPDPPAPPLAPPSSAWGGIRAAHAILGGLHLTLDWAVRGLLLLKTRL
# Experiments:
# kidney = conditions: 100-1000 μg/kg, IP; 10 minutes prior to or 30-60 minutes following IR; cited from earlier work
# nephrotoxic nephritis = conditions: 800-1360 μg/kg, IP 2 hours prior, then once daily for 6 days; cited from earlier work
# [1] = tested on: Borrelia burgdorferi-infected mice; conditions: 0.1-2 μg/mouse/day, 5 days/week for 3 weeks; cited from earlier work
# GVHD = conditions: 250 μg/kg, SC, twice daily; cited from earlier work
# [2] = tested on: chronic Hepatitis C and late stage liver disease; conditions: 5 μg/kg, daily for 12 weeks, SC; 20 patients; cited from earlier work
# mouse hepatocytes = assay: rhIL11 versus rmIL11 on mouse hepatocytes; type: cell-based
# Text: Mouse hepatocytes (ABC-TC3928, AcceGen Biotech) were maintained in mouse hepatocyte medium (ABC-TM3928, AcceGen Biotech) supplemented with 1% Penicillin-streptomycin.
# AILI = assay: rhIL11 or rmIL11 injection in APAP OD mice; type: in vivo, mouse
# Procedure: FIGS. 10A to 10L. […] (A, B, K, L) 24 h. […] FC: fold change
# infection colitis = conditions: 5 μg/kg, IP; cited from earlier work
# intestinal inflammation = conditions: mucosal sheets 10-10,000 ng/ml; rats 33 μg/kg alternate days 1 or 2 weeks; cited from earlier work
# [3] = tested on: Concanavalin A-induced T-cell-mediated hepatotoxicity; conditions: 50-500 μg/kg, IP 2 hours prior to Concanavalin A; cited from earlier work
# mIL11Rα1 = target: T1, mIL11Rα1 (Mus musculus, UniProt Q64385); assay: Competition ELISA, biotinylated rmIL11 binding to mIL11Rα1; conditions: two-fold dilutions from 5 μg ml^-1
# T1 construct: purchased SinoBiological 50075-M08H
# T1 sequence (Q64385 24-432): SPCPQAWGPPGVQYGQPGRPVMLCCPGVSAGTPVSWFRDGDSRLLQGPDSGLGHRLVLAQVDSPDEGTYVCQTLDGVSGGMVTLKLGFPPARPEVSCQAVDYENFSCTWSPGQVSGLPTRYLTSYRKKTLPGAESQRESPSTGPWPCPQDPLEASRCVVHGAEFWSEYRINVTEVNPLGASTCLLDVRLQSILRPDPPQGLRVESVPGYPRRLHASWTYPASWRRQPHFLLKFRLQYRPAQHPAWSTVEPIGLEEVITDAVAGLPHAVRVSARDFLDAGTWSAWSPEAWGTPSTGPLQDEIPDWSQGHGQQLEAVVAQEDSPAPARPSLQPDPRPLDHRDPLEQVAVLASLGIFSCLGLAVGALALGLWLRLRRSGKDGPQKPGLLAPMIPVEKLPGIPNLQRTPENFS
# Procedure: Mouse IL11Rα (1 μg ml^−1 in PBS) was coated on a 96-well plate (overnight at 4° C.) and then blocked with blocking buffer (1% BSA in PBS containing 0.05% Tween20). Biotinylated mouse Il11 was prepared using Lightning-Link Rapid Biotin type A kit (Expedeon) according to the manufacturer's instructions. RhIL11 or rmIl11 was two-fold serially diluted in blocking buffer (starting at 5 μg ml^−1) and mixed with 0.01 μg ml^−1 biotinylated mouse IL11. The mixture of biotinylated mouse IL11 and either rhIL11 or rmIL11 was added into the coated plate and incubated for 1 h at RT. Color development was performed by adding Streptavidin-HRP (1:1000 in blocking buffer) and TMB chromogen solution (002023, ThermoFisher Scientific).
# [4] = subcutaneous injection, APAP OD
molecule,measurement,setting,value
B1,renoprotection,kidney,The authors conclude that IL11 is renoprotective based on pre-
same,ECM deposition,nephrotoxic nephritis,nephrotoxic nephritis and then once daily for 6 days suppresses
same,arthritis and carditis,[1],"weeks) reduces arthritis, but not carditis, in Borrelia burgdorferi-"
same,Graft-vs-Host-Disease,GVHD,The authors conclude that IL11 prevents Graft-vs-Host-Disease
same,serum ALT by study end,[2],Lower serum ALT was observed by study end. The most
same,"ERK and JNK phosphorylation, CASP3 cleavage","mouse hepatocytes; 10 ng ml^-1, 24 h",had no effect
same,mouse hepatocyte cell death (ALT in supernatant),mouse hepatocytes; 24 h,did not
same,hepatic ERK and JNK activation,AILI; 24 h following APAP administration,reduction in hepatic ERK and JNK activation
same,hepatic GSH levels after APAP,AILI; APAP injury,restored APAP-induced GSH depletion
same,reduction of serum ALT (severity of AILI),AILI; [4],52%
same,reduction of serum AST (severity of AILI),AILI; [4],39%
same,infection colitis,infection colitis,IP) ameliorates infection colitis and is cytoprotective in TLR2-
same,epithelial transport and inflammation,intestinal inflammation,acts as a modulator of epithelial transport or as an anti-
same,liver necrosis,[3],Concanavalin A-induced T-cell-mediated hepatotoxicity reduces
same,survival,[3],liver necrosis and enhanced survival in mice.
same,competition with rmIL11 for binding to mIL11Rα1,mIL11Rα1,competed with rmIL11 for binding to mIL11Rα1
